T1: human LAG3 (construct not stated) (human, UniProt P18627 23-450, limits assumed)
T1 construct: also called human LAG3 protein; antigen
T1 sequence (looked up): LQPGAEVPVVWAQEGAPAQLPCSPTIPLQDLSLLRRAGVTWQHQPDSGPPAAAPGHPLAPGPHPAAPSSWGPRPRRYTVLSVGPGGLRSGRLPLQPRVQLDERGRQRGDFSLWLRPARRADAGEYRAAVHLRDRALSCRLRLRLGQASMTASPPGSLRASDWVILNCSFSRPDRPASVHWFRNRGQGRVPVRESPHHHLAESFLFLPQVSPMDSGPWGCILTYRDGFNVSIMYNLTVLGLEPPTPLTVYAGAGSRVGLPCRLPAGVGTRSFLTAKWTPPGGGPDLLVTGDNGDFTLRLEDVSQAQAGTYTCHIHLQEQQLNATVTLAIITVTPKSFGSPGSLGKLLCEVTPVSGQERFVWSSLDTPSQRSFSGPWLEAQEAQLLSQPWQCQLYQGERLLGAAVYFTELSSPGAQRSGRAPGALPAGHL

B1: Hu1210-27 (antibody, V domains shown)
VH: EVQLVESGGGLVQPGGSLRLSCAASGFTFSSYDMSWVRQAPGKGLEWVATISDGGGYIYYSDSVKGRFTISRDNAKNSLYLQMNSLRAEDTAVYICAREFGKRYALDYWGQGTLVTVSS
VL: DIQMTQSPSSLSASVGDRVTITCKASQDVTPAVAWYQQKPGKAPKLLIYSTSSRYTGVPSRFSGSGSGTDFTLTISSLQPEDFATYYCQQHYTTPLTFGQGTKLEIKR
notes: Hu1210 VH.5a x Vk.2; human gamma 1 / kappa constant domains
B2: Hu1210-31 (antibody, V domains shown)
VH: B1 VH with L114T
VL: B1 VL
notes: Hu1210 VH.5b x Vk.2; human gamma 1 / kappa constant domains
B3: Hu1210-17 (antibody, V domains shown)
VH: B1 VH with G44S, A88D, L114T
VL: DIQMTQSPSSLSASVGDRVTITCKASQDVTPAVAWYQQKPGKAPKLLIYSTSSRYTGVPSRFSGSGSGTDFTFTISSLQPEDIATYYCQQHYTTPLTFGQGTKLEIK
notes: Hu1210 VH.4b x Vk.1; human gamma 1 / kappa constant domains
B4: Hu1210-19 (antibody, V domains shown)
VH: B1 VH with V5L, G44S, A75S, S78T, L114T
VL: B3 VL with A43S
notes: Hu1210 VH.3a x Vk.1a; human gamma 1 / kappa constant domains
B5: Hu1210-36 (antibody, V domains shown)
VH: B1 VH with A40T, G42E, G44S, S78N
VL: B1 VL
notes: Hu1210 VH.5d (printed 'VH.Sd') x Vk.2; human gamma 1 / kappa constant domains
B6: 147H-6 (antibody, V domains shown)
VH: QVQLVQSGAEVKKPGASVKVSCKASGYTFTNYWLGWIKQAPGQGLEWIGDIYPGGDYINYNEKFKGKATLTADTSISTAYMELSRLRSDDTAVYYCARPNLPGDYWGQGTTVTVSS
VL: DIVMTQSPLSLPVTPGEPASISCRSSKSLLHSNGITYLYWYLQKPGQSPQLLIYQVSNLASGVPDRFSGSGSGTDFTLKISRVEAEDVGVYYCAQNLELPWTFGGGTKVEIK
notes: Common light chain; human gamma 1 / kappa constant domains
B7: 147H-7 (antibody, V domains shown)
VH: B6 VH with Y95F
VL: B6 VL
notes: as for B6
B8: 147H-14 (antibody, V domains shown)
VH: B6 VH with Q1E, Y95F
VL: B6 VL
notes: as for B6
B9: Hu1210-1 (antibody, V domains shown)
VH: B1 VH with Q13K, A49S, I95Y, L114T
VL: B3 VL
notes: Hu1210 VH.1 x Vk.1
B10: Hu1210-2 (antibody, V domains shown)
VH: B1 VH with Q13K, I95Y, L114T
VL: B3 VL
notes: Hu1210 VH.1a x Vk.1; human gamma 1 / kappa constant domains
B11: Hu1210-4 (antibody, V domains shown)
VH: B1 VH with Q13K, V37I, A49S, I95Y, L114T
VL: B3 VL
notes: Hu1210 VH.2 x Vk.1; human gamma 1 / kappa constant domains
B12: 147H chimeric antibody (antibody, V domains shown)
VH: QVQLQQSGSELVRPGTSVKISCKASGYTFTNYWLGWIKQRPGHGLEWIGDIYPGGDYINYNEKFKGKATLSADTSSSTAYMQLSSLTSEDSAVYFCARPNLPGDYWGQGTSVTVSS
VL: B6 VL with S7A, P8A, L9F, L11N, P15L, E17T, P18S, D65G, K79R, V109L
B13: Hu1210-18 (antibody, V domains shown)
VH: B1 VH with V5L, A49S, A75S, S78T, I95Y, L114T
VL: B3 VL with A43S
notes: Hu1210 VH.3 x Vk.1a; human gamma 1 / kappa constant domains
B14: Hu1210-21 (antibody, V domains shown)
VH: B1 VH with A88D, I95Y, L114T
VL: B3 VL with A43S
notes: Hu1210 VH.4a x Vk.1a; human gamma 1 / kappa constant domains
B15: Hu1210-20 (antibody, V domains shown)
VH: B1 VH with A49S, A88D, I95Y, L114T
VL: B3 VL with A43S
notes: Hu1210 VH.4 x Vk.1a; human gamma 1 / kappa constant domains

Numbering of substitutions follows the chain as printed.

A word on the Kd: it is the equilibrium constant for the complex coming apart. High values mean lower affinity, low ones higher affinity. A word on the koff: it is the rate constant with which the complex falls apart. A higher koff goes with a short-lived complex. The term kon denotes the rate constant with which the complex forms. Higher therefore signals fast association. A word on the EC50: it is the concentration needed to bring the measured effect to its halfway point.

T2 sequence (Q9NZQ7 19-290): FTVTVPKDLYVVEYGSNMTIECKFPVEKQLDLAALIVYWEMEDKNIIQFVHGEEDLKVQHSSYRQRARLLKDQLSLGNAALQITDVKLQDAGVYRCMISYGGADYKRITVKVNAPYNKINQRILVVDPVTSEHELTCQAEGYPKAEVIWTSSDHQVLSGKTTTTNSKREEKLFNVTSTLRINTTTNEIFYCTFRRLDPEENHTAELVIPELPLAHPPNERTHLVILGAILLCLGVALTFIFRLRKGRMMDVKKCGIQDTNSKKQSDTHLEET

The first experiment concerns the target T2, human PD-L1 expressed on mammalian cells (human, UniProt Q9NZQ7 19-290).
T2 construct: whole, on cells; also called PDL1-CHOK1 cells; PDL1-Raji cells
The experiment is described as follows: FACS receptor blocking on PDL1-CHOK1 cells, competitor Bio-PD1 (30 µg/ml). The procedure: To evaluate the blocking effect of humanized antibodies on human PD-L1 expressed on mammalian cells to bind to its receptor PD-1, the FACS-based receptor blocking assay was employed. Briefly, PDL1-CHOK1 cells were firstly incubated with 3-fold serious diluted HL1210-3 mouse mAb starting at 20 μg/ml at RT for 1 hour. After wash by FACS buffer (PBS with 2% FBS), the biotin-labeled huPD-1 were added to each well and incubated at RT for 1 hour. Then, the Streptavidin-PE was added to each well for 0.5 hour post twice wash with FACS buffer. The mean florescence intensity (MFI) of PE was evaluated by FACSAriaIII.
Molecule B1 showed a TOP of 104.

Regarding B2, the TOP turned out to be 92.9.

For B3, the TOP was found to be 80.9.

Take B4: the TOP stood at 87.5.

Molecule B5 gave a TOP of 91.8.

For a further experiment, the target named is T1, human LAG3 (construct not stated). The experiment in a line: BLI Octet Red 96, affinity ranking. (Biolayer interferometry detects binding as a change in optical thickness at a sensor tip.)
B6 gave a Kd of 15.3 nM, a dissociation rate constant (koff) of 0.00184 s⁻¹ and a kon of 120000 M⁻¹ s⁻¹.

B7 showed an equilibrium dissociation constant (Kd) of 15.7 nM, a koff of 0.00239 s⁻¹ and a kon of 152000 M⁻¹ s⁻¹.

The molecule B8 came in with a Kd of 23.2 nM, a koff of 0.0025 s⁻¹ and a kon of 108000 M⁻¹ s⁻¹.

A further experiment deals with T3, human PD-L1-Fc protein (human, UniProt Q9NZQ7 19-239).
T3 construct: Coated on ELISA plates; also called huPD-L1; not shown: Fc part
T3 sequence (Q9NZQ7 19-239 limits assumed): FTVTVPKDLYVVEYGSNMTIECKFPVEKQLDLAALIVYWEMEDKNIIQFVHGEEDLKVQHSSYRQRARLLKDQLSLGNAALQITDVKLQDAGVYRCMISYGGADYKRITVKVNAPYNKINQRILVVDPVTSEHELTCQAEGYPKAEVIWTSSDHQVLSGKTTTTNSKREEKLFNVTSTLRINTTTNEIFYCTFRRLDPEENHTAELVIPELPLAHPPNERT
The experiment in a line: ELISA on coated human PD-L1-Fc; EC50 table has no unit, x axis Ab(nM). The protocol:
(§1) To evaluate the antigen binding activity, the humanized antibodies were subjected to ELISA test. Briefly, microtiter plates were coated with human PD-L1-Fc protein at 0.1 μg/ml in PBS, 100 μl/well at 4° C. overnight, then blocked with 100 μl/well of 5% BSA. Five-fold dilutions of humanized antibodies starting from 10 μg/ml were added to each well and incubated for 1-2 hours at RT. The plates were washed with PBS/Tween and then incubate with […] antibody conjugated with Horse Radish Peroxidase (HRP) for 1 hour at RT. After washing, the plates were developed with TMB substrate and analyzed by spectrophotometer at OD 450-630 nm.
Background: In an ELISA, binding on a coated surface is turned into a signal by an enzyme label.
B9 returned an EC50 of 0.167 nM.

Take B10: the EC50 worked out at 0.168 nM.

With B11, the EC50 turned out to be 0.184 nM.

In a further experiment the target is T1, human LAG3 (construct not stated). The experiment in a line: BLI Octet Red 96, full kinetics, antigen 50-3.125 nM. The procedure:
The binding affinity was calculated by software in Octet® RED96 System.
Molecule B6 had a Kd of 24.8 nM, a koff of 0.00259 s⁻¹ and a kon of 105000 M⁻¹ s⁻¹.

Molecule B12 showed a Kd of 27.1 nM, a dissociation rate constant (koff) of 0.00217 s⁻¹ and a kon of 80100 M⁻¹ s⁻¹.

B7 returned a Kd of 26.5 nM, a koff of 0.00312 s⁻¹ and a kon of 118000 M⁻¹ s⁻¹.

Molecule B8 had a dissociation constant (Kd) of 20.7 nM, a koff of 0.00204 s⁻¹ and an on-rate (kon) of 98700 M⁻¹ s⁻¹.

The target in another experiment is T2, human PD-L1 expressed on mammalian cells. The experiment in a line: flow cytometry (MFI) on PDL1-CHOK1 cells; EC50 table has no unit, x axis Antibodies(nM). The protocol: (§2) To evaluate the antigen binding property, the humanized antibodies were analyzed for its binding to mammalian expressed PD-L1 by FACS. Briefly, PDL1-CHOK1 cells were firstly incubated with 5-fold serious diluted humanized antibodies starting at 2 μg/ml at RT for 1 hour. After wash by FACS buffer (PBS with 2% FBS), the alexa 488-anti-human IgG antibody was added to each well and incubated at RT for 1 hour. The MFI of Alexa 488 was evaluated by FACSAriaIII.
On the technique in general: In flow cytometry, cells or beads pass a laser one at a time.
The molecule B9 displayed an EC50 of 2.31 nM.

On to B10, for which the EC50 stood at 1.44 nM.

In turn, B11 showed an EC50 of 2.12 nM.

For a further experiment the target is unchanged. The description is as above. The source holds these as a separate data set. The protocol: as §2
In turn, B3 returned an EC50 of 1.23 nM.

Regarding B13, the midpoint of the response, the EC50, lay at 1.8 nM.

In the case of B14, the EC50 came out at 1.29 nM.

B4 registered an EC50 of 1.01 nM.

In turn, B15 registered a concentration giving a half-maximal response (EC50) of 1.73 nM.

For a further experiment, the target named is T4, human PD-L1 (construct not stated) (human, UniProt Q9NZQ7 19-239, limits assumed).
T4 construct: also called B7-H1 (PD-L1); PD-L1 protein
T4 sequence (Q9NZQ7 19-239 limits assumed): as above
The experiment is described as follows: BLI Octet Red 96, affinity ranking. The text has this: To explore the binding kinetics of the humanized antibody, this example performed the affinity ranking by using Octet Red 96.
B9 returned a Kd of 4.25 nM, a koff of 0.000302 s⁻¹ and a kon of 71000 M⁻¹ s⁻¹.

B3 displayed a Kd of 2.2 nM, a koff of 0.00018 s⁻¹ and a kon of 81700 M⁻¹ s⁻¹.

In turn, B13 displayed a Kd of 4.5 nM, a koff of 0.000357 s⁻¹ and a kon of 79200 M⁻¹ s⁻¹.

With B14, the affinity, expressed as Kd, was 3.12 nM; the koff was 0.000293 s⁻¹; the kon is 93900 M⁻¹ s⁻¹.

The molecule B4 showed a Kd of 2.5 nM, a koff of 0.000225 s⁻¹ and a kon of 90300 M⁻¹ s⁻¹.

Turning to B15, the Kd came out at 4.51 nM, the koff was found to be 0.0004 s⁻¹ and the kon was 88700 M⁻¹ s⁻¹.

For B10, the Kd stood at 3.23 nM, the off-rate constant (koff) was found to be 0.000251 s⁻¹ and the kon worked out at 77800 M⁻¹ s⁻¹.

B11 registered a Kd of 7.68 nM, a koff of 0.000546 s⁻¹ and a kon of 71200 M⁻¹ s⁻¹.

For the next experiment, the target named is T5, human PD-L1-his taq protein (human, UniProt Q9NZQ7 19-239, limits assumed).
T5 construct: also called recombinant PD-L1 protein; recombinant human PD-L1; not shown: his tag
T5 sequence (Q9NZQ7 19-239 limits assumed): as above
The experiment is described as follows: SPR Biacore T200, antibody captured, PD-L1-his injected. The procedure: The binding of the humanized antibodies to recombinant PD-L1 protein (human PD-L1-his taq) was tested by BIACORE™ using a capture method. The HL1210-3 mouse mAb were captured using anti-mouse Fc antibody coated on a CM5 chip. A series dilution of human PD-L1-his taq protein was injected over captured antibody for 3 mins at a flow rate of […]. The antigen was allowed to dissociate for 900 s. All the experiments were carried out on a Biacore T200.
B2 returned a Kd of 0.786 nM, a koff of 0.000117 s⁻¹ and a kon of 149000 M⁻¹ s⁻¹.

For B3, the Kd is 0.193 nM, the koff worked out at 2.13e-05 s⁻¹ and the kon was 110000 M⁻¹ s⁻¹.

B5 came in with a Kd of 0.538 nM, a koff of 7.85e-05 s⁻¹ and an on-rate constant (kon) of 146000 M⁻¹ s⁻¹.

Another experiment has as its target T3, human PD-L1-Fc protein. The experiment is described as follows: ELISA on coated human PD-L1-Fc; EC50 table has no unit, x axis Ab(nM). This is another data set of the same source. The procedure: as §1
The molecule B3 registered a half-maximal effective concentration (EC50) of 0.208 nM.

Molecule B13 had an EC50 of 0.195 nM.

Take B14: the EC50 was 0.192 nM.

For B4, the EC50 came out at 0.137 nM.

Regarding B15, the EC50 turned out to be 0.185 nM.

(Values after patent publication US20220363763A1 (ABL BIO, published 2022).)
